48 variants from the Human Domainome abundance scans (Beltran et al. 2025) can be followed below.

± gives the uncertainty stated by the source.

B1: Intersectin-2, residues 1129 to 1183; numbered along this chain, Q9NZM3 (parent)
chain: VCQVIAMYDYAANNEDELSFSKGQLINVMNKDDPDWWQGEINGVTGLFPSNYVKM

The series covers variants of B1. Nature of the series: abundance fitness (aPCA) (normalised: wild type 0, dead -1); higher = more abundant; growth selection in yeast, the domain comes from the species named. As to conditions: Homo sapiens.
As for VCQVIAMYDYAANNEDELSFSKGQLINVMNKDDPDWWMGEINGVTGLFPSNYVKM [Q38M], the abundance fitness is -0.074 ± 0.041.
With VCQVIAMYDYAANNEDELSFSKGQLINVMNKDDPDWWCGEINGVTGLFPSNYVKM [Q38C], the abundance fitness is -0.027 ± 0.066.
On to VCQVIAMYDYAANNEDELSFSKGQLINVMNKDDPDWWIGEINGVTGLFPSNYVKM [Q38I], for which the abundance fitness worked out at 0.105 ± 0.06.
As to VCQVIAMYDYAANNEDELSFSKGQLINVMNKDDPDWWDGEINGVTGLFPSNYVKM [Q38D], the abundance fitness is -0.024 ± 0.058.
Next, VCQVIAMYDYAANNEDELSFSKGQLINVMNKDDPDWWGGEINGVTGLFPSNYVKM [Q38G]: -0.05 ± 0.044; VCQVIAMYDYAANNEDELSFSKGQLINVMNKDDPDWWEGEINGVTGLFPSNYVKM [Q38E]: -0.003 ± 0.055; VCQVIAMYDYAANNEDELSFSKGQLINVMNKDDPDWWRGEINGVTGLFPSNYVKM [Q38R]: -0.029 ± 0.031.
Regarding VCQVIAMYDYAANNEDELSFSKGQLINVMNKDDPDWWTGEINGVTGLFPSNYVKM [Q38T], the abundance fitness was -0.038 ± 0.034.
Next, VCQVIAMYDYAANNEDELSFSKGQLINVMNKDDPDWWWGEINGVTGLFPSNYVKM [Q38W]: -0.276 ± 0.068.
Next, VCQVIAMYDYAANNEDELSFSKGQLINVMNKDDPDWWNGEINGVTGLFPSNYVKM [Q38N]: -0.248 ± 0.073; VCQVIAMYDYAANNEDELSFSKGQLINVMNKDDPDWWSGEINGVTGLFPSNYVKM [Q38S]: -0.046 ± 0.036; VCQVIAMYDYAANNEDELSFSKGQLINVMNKDDPDWWVGEINGVTGLFPSNYVKM [Q38V]: -0.033 ± 0.039.
As to VCQVIAMYDYAANNEDELSFSKGQLINVMNKDDPDWWPGEINGVTGLFPSNYVKM [Q38P], the abundance fitness was -0.654 ± 0.061.
As for VCQVIAMYDYAANNEDELSFSKGQLINVMNKDDPDWWLGEINGVTGLFPSNYVKM [Q38L], the abundance fitness was -0.072 ± 0.029.
With VCQVIAMYDYAANNEDELSFSKGQLINVMNKDDPDWWAGEINGVTGLFPSNYVKM [Q38A], the abundance fitness was -0.009 ± 0.039.
The value for VCQVIAMYDYAANNEDELSFSKGQLINVMNKDDPDWWKGEINGVTGLFPSNYVKM [Q38K] was 0.005 ± 0.053; that for VCQVIAMYDYAANNEDELSFSKGQLINVMNKDDPDWWHGEINGVTGLFPSNYVKM [Q38H] was 0.04 ± 0.056.
Next, VCQVIAMYDYAANNEDELSFSKGQLINVMNKDDPDWWFGEINGVTGLFPSNYVKM [Q38F]: -0.059 ± 0.063.
Next, VCQVIAMYDYAANNEDELSFSKGQLINVMNKDDPDWWYGEINGVTGLFPSNYVKM [Q38Y]: -0.012 ± 0.072; VCQVIAMYDYAANNEDELSFSKGQLINVMNKDDPDYWQGEINGVTGLFPSNYVKM [W36Y]: -0.054 ± 0.06.
With VCQVIAMYDYAANNEDELSFSKGQLINVMNKDDPDKWQGEINGVTGLFPSNYVKM [W36K], the abundance fitness amounted to 0.045 ± 0.054.
Consider VCQVIAMYDYAANNEDELSFSKGQLINVMNKDDPDEWQGEINGVTGLFPSNYVKM [W36E], for which the abundance fitness is -0.108 ± 0.04.
Next, VCQVIAMYDYAANNEDELSFSKGQLINVMNKDDPDMWQGEINGVTGLFPSNYVKM [W36M]: 0.002 ± 0.032.
For the variant VCQVIAMYDYAANNEDELSFSKGQLINVMNKDDPDDWQGEINGVTGLFPSNYVKM [W36D], the abundance fitness was -0.323 ± 0.028.
For the variant VCQVIAMYDYAANNEDELSFSKGQLINVMNKDDPDNWQGEINGVTGLFPSNYVKM [W36N], the abundance fitness was -0.023 ± 0.038.
The value for VCQVIAMYDYAANNEDELSFSKGQLINVMNKDDPDCWQGEINGVTGLFPSNYVKM [W36C] was -0.003 ± 0.056; that for W36G was -0.626 ± 0.055; that for VCQVIAMYDYAANNEDELSFSKGQLINVMNKDDPDLWQGEINGVTGLFPSNYVKM [W36L] was -0.029 ± 0.03.
The value for VCQVIAMYDYAANNEDELSFSKGQLINVMNKDDPDHWQGEINGVTGLFPSNYVKM [W36H] was -0.054 ± 0.047.
As for VCQVIAMYDYAANNEDELSFSKGQLINVMNKDDPDRWQGEINGVTGLFPSNYVKM [W36R], the abundance fitness was -0.019 ± 0.031.
Next, VCQVIAMYDYAANNEDELSFSKGQLINVMNKDDPDAWQGEINGVTGLFPSNYVKM [W36A]: -0.092 ± 0.048.
On to VCQVIAMYDYAANNEDELSFSKGQLINVMNKDDPDPWQGEINGVTGLFPSNYVKM [W36P], for which the abundance fitness was -1.03 ± 0.11.
The value for VCQVIAMYDYAANNEDELSFSKGQLINVMNKDDPDSWQGEINGVTGLFPSNYVKM [W36S] was -0.1 ± 0.035; that for VCQVIAMYDYAANNEDELSFSKGQLINVMNKDDPDTWQGEINGVTGLFPSNYVKM [W36T] was 0.011 ± 0.04; that for VCQVIAMYDYAANNEDELSFSKGQLINVMNKDDPDVWQGEINGVTGLFPSNYVKM [W36V] was -0.052 ± 0.039.
The value for VCQVIAMYDYAANNEDELSFSKGQLINVMNKDDPDIWQGEINGVTGLFPSNYVKM [W36I] was -0.159 ± 0.072; that for VCQVIAMYDYAANNEDELSFSKGQLINVMNKDDPDWWQFEINGVTGLFPSNYVKM [G39F] was -0.854 ± 0.29; that for VCQVIAMYDYAANNEDELSFSKGQLINVMNKDDPDWWQVEINGVTGLFPSNYVKM [G39V] was -1.02 ± 0.079.
Turning to VCQVIAMYDYAANNEDELSFSKGQLINVMNKDDPDWWQCEINGVTGLFPSNYVKM [G39C], the abundance fitness is -0.995 ± 0.12.
The value for VCQVIAMYDYAANNEDELSFSKGQLINVMNKDDPDWWQHEINGVTGLFPSNYVKM [G39H] was -0.896 ± 0.3; that for VCQVIAMYDYAANNEDELSFSKGQLINVMNKDDPDWWQWEINGVTGLFPSNYVKM [G39W] was -1.18 ± 0.22; that for VCQVIAMYDYAANNEDELSFSKGQLINVMNKDDPDWWQSEINGVTGLFPSNYVKM [G39S] was -0.937 ± 0.12.
Take VCQVIAMYDYAANNEDELSFSKGQLINVMNKDDPDWWQEEINGVTGLFPSNYVKM [G39E]: the abundance fitness was -0.913 ± 0.098.
Next, VCQVIAMYDYAANNEDELSFSKGQLINVMNKDDPDWWQYEINGVTGLFPSNYVKM [G39Y]: -0.878 ± 0.24.
The value for VCQVIAMYDYAANNEDELSFSKGQLINVMNKDDPDWWQAEINGVTGLFPSNYVKM [G39A] was -0.699 ± 0.06.
Next, VCQVIAMYDYAANNEDELSFSKGQLINVMNKDDPDWWQNEINGVTGLFPSNYVKM [G39N]: -0.831 ± 0.18.
Turning to VCQVIAMYDYAANNEDELSFSKGQLINVMNKDDPDWWQPEINGVTGLFPSNYVKM [G39P], the abundance fitness was -0.864 ± 0.12.
The value for VCQVIAMYDYAANNEDELSFSKGQLINVMNKDDPDWWQTEINGVTGLFPSNYVKM [G39T] was -0.89 ± 0.11.
